Patent publication US20170306033A1 (Amgen, published 2017)

T1: human PAC1 receptor (human, UniProt P41586 21-468)
T1 sequence: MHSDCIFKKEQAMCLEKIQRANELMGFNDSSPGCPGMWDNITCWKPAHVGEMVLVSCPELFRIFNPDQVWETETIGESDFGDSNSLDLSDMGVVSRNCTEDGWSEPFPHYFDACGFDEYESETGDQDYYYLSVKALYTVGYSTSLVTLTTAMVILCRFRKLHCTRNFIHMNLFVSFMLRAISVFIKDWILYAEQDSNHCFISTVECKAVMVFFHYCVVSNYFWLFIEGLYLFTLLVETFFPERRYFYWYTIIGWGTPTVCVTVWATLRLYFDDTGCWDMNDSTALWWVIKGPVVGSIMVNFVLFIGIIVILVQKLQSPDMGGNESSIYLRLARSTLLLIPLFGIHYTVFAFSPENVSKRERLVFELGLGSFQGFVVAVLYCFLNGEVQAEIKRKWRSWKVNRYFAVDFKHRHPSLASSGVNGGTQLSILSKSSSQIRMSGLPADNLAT


What was measured:
human CGRP receptor = human CGRP receptor (human, UniProt Q16602 23-461; O60894 27-148); experiment: cell-based or functional assay
human CGRP receptor, sequence (Q16602 23-461 limits assumed, chain 1 of 2): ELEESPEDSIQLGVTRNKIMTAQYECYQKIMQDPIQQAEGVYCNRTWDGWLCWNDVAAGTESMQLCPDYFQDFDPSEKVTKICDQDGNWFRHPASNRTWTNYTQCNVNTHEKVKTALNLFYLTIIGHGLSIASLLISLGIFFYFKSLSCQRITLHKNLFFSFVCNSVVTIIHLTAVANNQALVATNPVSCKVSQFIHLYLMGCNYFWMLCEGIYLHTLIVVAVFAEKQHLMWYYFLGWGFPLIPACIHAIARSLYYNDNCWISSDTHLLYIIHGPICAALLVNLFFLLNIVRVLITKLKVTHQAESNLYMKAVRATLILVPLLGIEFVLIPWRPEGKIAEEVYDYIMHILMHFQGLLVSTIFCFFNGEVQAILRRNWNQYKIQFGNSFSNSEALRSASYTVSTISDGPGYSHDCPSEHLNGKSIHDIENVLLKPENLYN
human CGRP receptor, sequence (O60894 27-148 limits assumed, chain 2 of 2): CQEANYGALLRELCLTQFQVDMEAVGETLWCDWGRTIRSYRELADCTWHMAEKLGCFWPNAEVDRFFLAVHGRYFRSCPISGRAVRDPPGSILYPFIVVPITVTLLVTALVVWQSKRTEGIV

human PAC1 receptor = target: T1, human PAC1 receptor; experiment: cell-based or functional assay

| % inhibition of human CGRPR (human CGRP receptor) [%] | % inhibition of human PAC1 (human PAC1 receptor) [%] | Binder |
| --- | --- | --- |
| 72 | 22 | iPS:327877 (bispecific antibody, human IgG1, kappa, N297G) light 1: not shown heavy 1: not shown light 2: EIVLTQSPGTLSLSPGERATLSCRASQSVSSGYLTWYQQKPGQAPRLLIYGASSRATGIPDRFSGSGSGTDFTLTISRLEPEDFAVYYCQQYGNSLSRFGQGTKLEIKRTVAAPSVFIFPPSDEQLKSGTASVVCLLNNFYPREAKVQWKVDNALQSGNSQESVTEQDSKDSTYSLKSTLTLSKADYEKHKVYACEVTHQGLSSPVTKSFNRGEC heavy 2: not shown |
| 81 | 19 | iPS:327879 (bispecific antibody, human IgG1, kappa, lambda, N297G) light 1: not shown heavy 1: not shown light 2: QSVLTQPPSVSAAPGQKVTISCSGSSSNIGNNYVSWYQQLPGTAPKLLIYDNNKRPSGIPDRFSGSKSGTSTTLGITGLQTGDEADYYCGTWDSRLSAVVFGGGTKLTVLGQPKANPTVTLFPPSSEELQANKATLVCLISDFYPGAVTVAWKADGSPVKAGVETTKPSKQSNNKYAAKSYLSLTPEQWKSHRSYSCQVTHEGSTVEKTVAPTECS heavy 2: QVQLVESGGGVVQPGRSLRLSCAASGFTFSSFGMHWVRQAPGKGLEWVAVISFDGSIKYSVDSVKGRFTISRDNSKNTLFLQMNSLRAEDTAVYYCARDRLNYYESSGYYHYKYYGMAVWGQGTTVTVSSASTKGPSVFPLAPSSKSTSGGTAALGCLVKDYFPEPVTVSWNSGALTSGVHTFPAVLQSSGLYSLESVVTVPSSSLGTQTYICNVNHKPSNTKVDKKVEPKSCDKTHTCPPCPAPELLGGPSVFLFPPKPKDTLMISRTPEVTCVVVDVSHEDPEVKFNWYVDGVEVHNAKTKPCEEQYGSTYRCVSVLTVLHQDWLNGKEYKCKVSNKALPAPIEKTISKAKGQPREPQVYTLPPSRKEMTKNQVSLTCLVKGFYPSDIAVEWESNGQPENNYKTTPPVLKSDGSFFLYSKLTVDKSRWQQGNVFSCSVMHEALHNHYTQKSLSLSPGK |
| 75 | 42 | iPS:327878 (bispecific antibody, human IgG1, kappa, lambda, N297G) light 1: DIQMTQSPSSLSASVGDRITITCRASQSISRYLNWYQQKPGKAPKLLIYAASSLQSGIPSRFSGSGSGTDFTLTINSLQPEDFATYFCQQSYSPPFTFGQGTKVDIKRTVAAPSVFIFPPSDEQLKSGTASVVCLLNNFYPREAKVQWKVDNALQSGNSQESVTEQDSKDSTYSLESTLTLSKADYEKHKVYACEVTHQGLSSPVTKSFNRGEC heavy 1: not shown light 2: QSVLTQPPSVSAAPGQKVTISCSGSSSNIGNNYVSWYQQLPGTAPKLLIYDNNKRPSGIPDRFSGSKSGTSTTLGITGLQTGDEADYYCGTWDSRLSAVVFGGGTKLTVLGQPKANPTVTLFPPSSEELQANKATLVCLISDFYPGAVTVAWKADGSPVKAGVETTKPSKQSNNKYAAKSYLSLTPEQWKSHRSYSCQVTHEGSTVEKTVAPTECS heavy 2: QVQLVESGGGVVQPGRSLRLSCAASGFTFSSFGMHWVRQAPGKGLEWVAVISFDGSIKYSVDSVKGRFTISRDNSKNTLFLQMNSLRAEDTAVYYCARDRLNYYESSGYYHYKYYGMAVWGQGTTVTVSSASTKGPSVFPLAPSSKSTSGGTAALGCLVKDYFPEPVTVSWNSGALTSGVHTFPAVLQSSGLYSLESVVTVPSSSLGTQTYICNVNHKPSNTKVDKKVEPKSCDKTHTCPPCPAPELLGGPSVFLFPPKPKDTLMISRTPEVTCVVVDVSHEDPEVKFNWYVDGVEVHNAKTKPCEEQYGSTYRCVSVLTVLHQDWLNGKEYKCKVSNKALPAPIEKTISKAKGQPREPQVYTLPPSRKEMTKNQVSLTCLVKGFYPSDIAVEWESNGQPENNYKTTPPVLKSDGSFFLYSKLTVDKSRWQQGNVFSCSVMHEALHNHYTQKSLSLSPGK |

The next lines start with the binder.

| Binder | % inhibition of human CGRPR (human CGRP receptor) [%] | % inhibition of human PAC1 (human PAC1 receptor) [%] |
| --- | --- | --- |
| iPS:327872 (bispecific antibody, human IgG1, kappa, N297G) light 1: DIQMTQSPSSLSASVGDRITITCRASQSISRYLNWYQQKPGKAPKLLIYAASSLQSGIPSRFSGSGSGTDFTLTINSLQPEDFATYFCQQSYSPPFTFGQGTKVDIKRTVAAPSVFIFPPSDEQLKSGTASVVCLLNNFYPREAKVQWKVDNALQSGNSQESVTEQDSKDSTYSLESTLTLSKADYEKHKVYACEVTHQGLSSPVTKSFNRGEC heavy 1: not shown light 2: EIVLTQSPGTLSLSPGERATLSCRASQSVSSGYLTWYQQKPGQAPRLLIYGASSRATGIPDRFSGSGSGTDFTLTISRLEPEDFAVYYCQQYGNSLSRFGQGTKLEIKRTVAAPSVFIFPPSDEQLKSGTASVVCLLNNFYPREAKVQWKVDNALQSGNSQESVTEQDSKDSTYSLKSTLTLSKADYEKHKVYACEVTHQGLSSPVTKSFNRGEC heavy 2: not shown | 80 | 40 |
| iPS:327741 (bispecific antibody, human IgG1, kappa, lambda, N297G) light 1: DIQLTQSPSFLSASVGDRVTITCRASQSIGRSLHWYQQKPGKAPKLLIKYASQSLSGVPSRFSGSGSGTEFTLTISSLQPEDFATYYCHQSSRLPFTFGPGTKVDIKRTVAAPSVFIFPPSDEQLKSGTASVVCLLNNFYPREAKVQWKVDNALQSGNSQESVTEQDSKDSTYSLESTLTLSKADYEKHKVYACEVTHQGLSSPVTKSFNRGEC heavy 1: not shown light 2: QSVLTQPPSVSAAPGQKVTISCSGSSSNIGNNYVSWYQQLPGTAPKLLIYDNNKRPSGIPDRFSGSKSGTSATLGITGLQTGDEADYYCGTWDSRLSAVVFGGGTKLTVLGQPKANPTVTLFPPSSEELQANKATLVCLISDFYPGAVTVAWKADGSPVKAGVETTKPSKQSNNKYAAKSYLSLTPEQWKSHRSYSCQVTHEGSTVEKTVAPTECS heavy 2: QVQLVESGGGVVQPGRSLRLSCAASGFTFSSFGMHWVRQAPGKGLEWVAVISFDGSIKYSVDSVKGRFTISRDNSKNTLFLQMNSLRAEDTAVYYCARDRLNYYESSGYYHYKYYGMAVWGQGTTVTVSSASTKGPSVFPLAPSSKSTSGGTAALGCLVKDYFPEPVTVSWNSGALTSGVHTFPAVLQSSGLYSLESVVTVPSSSLGTQTYICNVNHKPSNTKVDKKVEPKSCDKTHTCPPCPAPELLGGPSVFLFPPKPKDTLMISRTPEVTCVVVDVSHEDPEVKFNWYVDGVEVHNAKTKPCEEQYGSTYRCVSVLTVLHQDWLNGKEYKCKVSNKALPAPIEKTISKAKGQPREPQVYTLPPSRKKMTKNQVSLTCLVKGFYPSDIAVEWESNGQPENNYKTTPPVLKSDGSFFLYSKLTVDKSRWQQGNVFSCSVMHEALHNHYTQKSLSLSPGK | 83 | 70 |
| iPS:327871 (bispecific antibody, human IgG2, kappa, lambda) light 1: DIQLTQSPSFLSASVGDRVTITCRASQSIGRSLHWYQQKPGKAPKLLIKYASQSLSGVPSRFSGSGSGTEFTLTISSLQPEDFATYYCHQSSRLPFTFGPGTKVDIKRTVAAPSVFIFPPSDEQLKSGTASVVCLLNNFYPREAKVQWKVDNALQSGNSQESVTEQDSKDSTYSLESTLTLSKADYEKHKVYACEVTHQGLSSPVTKSFNRGEC heavy 1: QVQLVESGAEVVKPGASVKVSCKASGFTFSRFAMHWVRQAPGQGLEWMGVISYDGGNKYYAESVKGRVTMTRDTSTSTLYMELSSLRSEDTAVYYCARGYDVLTGYPDYWGQGTLVTVSSASTKGPSVFPLAPCSRSTSESTAALGCLVKDYFPEPVTVSWNSGALTSGVHTFPAVLQSSGLYSLKSVVTVPSSNFGTQTYTCNVDHKPSNTKVDKTVERKCCVECPPCPAPPVAGPSVFLFPPKPKDTLMISRTPEVTCVVVDVSHEDPEVQFNWYVDGVEVHNAKTKPREEQFNSTFRVVSVLTVVHQDWLNGKEYKCKVSNKGLPAPIEKTISKTKGQPREPQVYTLPPSREEMTKNQVSLTCLVDGFYPSDIAVEWESNGQPENNYDTTPPMLDSDGSFFLYSDLTVDKSRWQQGNVFSCSVMHEALHNHYTQKSLSLSPGK light 2: QSVLTQPPSVSAAPGQKVTISCSGSSSNIGNNYVSWYQQLPGTAPKLLIYDNNKRPSGIPDRFSGSKSGTSTTLGITGLQTGDEADYYCGTWDSRLSAVVFGGGTKLTVLGQPKANPTVTLFPPSSEELQANKATLVCLISDFYPGAVTVAWKADGSPVKAGVETTKPSKQSNNKYAAKSYLSLTPEQWKSHRSYSCQVTHEGSTVEKTVAPTECS heavy 2: QVQLVESGGGVVQPGRSLRLSCAASGFTFSSFGMHWVRQAPGKGLEWVAVISFDGSIKYSVDSVKGRFTISRDNSKNTLFLQMNSLRAEDTAVYYCARDRLNYYDSSGYYHYKYYGMAVWGQGTTVTVSSASTKGPSVFPLAPCSRSTSESTAALGCLVKDYFPEPVTVSWNSGALTSGVHTFPAVLQSSGLYSLESVVTVPSSNFGTQTYTCNVDHKPSNTKVDKTVERKCCVECPPCPAPPVAGPSVFLFPPKPKDTLMISRTPEVTCVVVDVSHEDPEVQFNWYVDGVEVHNAKTKPREEQFNSTFRVVSVLTVVHQDWLNGKEYKCKVSNKGLPAPIEKTISKTKGQPREPQVYTLPPSRKKMTKNQVSLTCLVKGFYPSDIAVEWESNGQPENNYKTTPPMLKSDGSFFLYSKLTVDKSRWQQGNVFSCSVMHEALHNHYTQKSLSLSPGK | 65 | 68 |
| iPS:327742 (bispecific antibody, human IgG1, kappa, lambda, N297G) light 1: EIVLTQSPATLSLSPGERATLSCRASQSVGRSLHWYQQKPGQAPRLLIKYASQSLSGIPARFSGSGSGTDFTLTISSLEPEDFAVYYCHQSSRLPFTFGPGTKVDIKRTVAAPSVFIFPPSDEQLKSGTASVVCLLNNFYPREAKVQWKVDNALQSGNSQESVTEQDSKDSTYSLESTLTLSKADYEKHKVYACEVTHQGLSSPVTKSFNRGEC heavy 1: not shown light 2: QSVLTQPPSVSAAPGQKVTISCSGSSSNIGNNYVSWYQQLPGTAPKLLIYDNNKRPSGIPDRFSGSKSGTSATLGITGLQTGDEADYYCGTWDSRLSAVVFGGGTKLTVLGQPKANPTVTLFPPSSEELQANKATLVCLISDFYPGAVTVAWKADGSPVKAGVETTKPSKQSNNKYAAKSYLSLTPEQWKSHRSYSCQVTHEGSTVEKTVAPTECS heavy 2: QVQLVESGGGVVQPGRSLRLSCAASGFTFSSFGMHWVRQAPGKGLEWVAVISFDGSIKYSVDSVKGRFTISRDNSKNTLFLQMNSLRAEDTAVYYCARDRLNYYESSGYYHYKYYGMAVWGQGTTVTVSSASTKGPSVFPLAPSSKSTSGGTAALGCLVKDYFPEPVTVSWNSGALTSGVHTFPAVLQSSGLYSLESVVTVPSSSLGTQTYICNVNHKPSNTKVDKKVEPKSCDKTHTCPPCPAPELLGGPSVFLFPPKPKDTLMISRTPEVTCVVVDVSHEDPEVKFNWYVDGVEVHNAKTKPCEEQYGSTYRCVSVLTVLHQDWLNGKEYKCKVSNKALPAPIEKTISKAKGQPREPQVYTLPPSRKKMTKNQVSLTCLVKGFYPSDIAVEWESNGQPENNYKTTPPVLKSDGSFFLYSKLTVDKSRWQQGNVFSCSVMHEALHNHYTQKSLSLSPGK | 84 | 96 |
